# In the supplement of paper PMC9112550, “Optimization of the antimicrobial peptide Bac7 by deep mutational scanning” (BMC Biology, 2022):
# Test system: Escherichia coli TOP10
# Test: shrunken log2 fold change of peptide-encoding DNA abundance (4.5 h post-induction vs induction); higher = less antimicrobial activity (less host growth inhibition)
# Conditions: time post-induction: 4.5 h; library: site-saturation at positions 5, 18, 19, 20
# 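Note: peptides expressed intracellularly from a pBAD plasmid library in pooled LB shake-flask culture, induced with 0.3% L-arabinose, DNA abundance read by NGS, three biological replicates, DESeq2 with apeglm shrinkage.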
row,Sequence,shrunken log2 fold change
1,RRIRFRPPRLPRPRPRPPFSPRP,-0.0847
2,RRIRFRPPRLPRPRPRPPGHPRP,0.337
3,RRIRFRPPRLPRPRPRPPHDPRP,0.336
4,RRIRFRPPRLPRPRPRPPILPRP,-0.254
5,RRIRFRPPRLPRPRPRPPLPPRP,0.661
6,RRIRFRPPRLPRPRPRPPMFPRP,-0.0657
7,RRIRFRPPRLPRPRPRPPMIPRP,-0.224
8,RRIRFRPPRLPRPRPRPPMKPRP,0.0021
9,RRIRFRPPRLPRPRPRPPMYPRP,-0.395
10,RRIRFRPPRLPRPRPRPPNDPRP,0.273
11,RRIRFRPPRLPRPRPRPPVQPRP,0.3
12,RRIRFRPPRLPRPRPRPPWKPRP,0.154
13,RRIRFRPPRLPRPRPRPPWNPRP,-0.128
14,RRIRFRPPRLPRPRPRPQAKPRP,0.128
15,RRIRFRPPRLPRPRPRPQCLPRP,-0.0767
16,RRIRFRPPRLPRPRPRPQCPPRP,-0.225
17,RRIRFRPPRLPRPRPRPQERPRP,0.0046
18,RRIRFRPPRLPRPRPRPQFQPRP,0.0151
19,RRIRFRPPRLPRPRPRPQFYPRP,-0.592
20,RRIRFRPPRLPRPRPRPQKQPRP,-0.199
21,RRIRFRPPRLPRPRPRPQKRPRP,0.297
22,RRIRFRPPRLPRPRPRPQLDPRP,0.123
23,RRIRFRPPRLPRPRPRPQLIPRP,-0.313
24,RRIRFRPPRLPRPRPRPQLKPRP,-0.0312
25,RRIRFRPPRLPRPRPRPQNGPRP,-0.0443

row,Sequence,shrunken log2 fold change
1,RRIRFRPPRLPRPRPRPQNKPRP,-0.592
2,RRIRFRPPRLPRPRPRPQNLPRP,-0.218
3,RRIRFRPPRLPRPRPRPQNNPRP,-0.656
4,RRIRFRPPRLPRPRPRPQPCPRP,0.078
5,RRIRFRPPRLPRPRPRPQPLPRP,-0.0304
6,RRIRFRPPRLPRPRPRPQPPPRP,0.94
7,RRIRFRPPRLPRPRPRPQQAPRP,0.366
8,RRIRFRPPRLPRPRPRPQQLPRP,-0.437
9,RRIRFRPPRLPRPRPRPQTKPRP,-0.142
10,RRIRFRPPRLPRPRPRPQWSPRP,-0.485
11,RRIRFRPPRLPRPRPRPRAEPRP,0.363
12,RRIRFRPPRLPRPRPRPRCMPRP,-0.124
13,RRIRFRPPRLPRPRPRPRCVPRP,-0.0244
14,RRIRFRPPRLPRPRPRPRDNPRP,-0.173
15,RRIRFRPPRLPRPRPRPREDPRP,0.0505
16,RRIRFRPPRLPRPRPRPRFMPRP,-0.117
17,RRIRFRPPRLPRPRPRPRFPPRP,0.0497
18,RRIRFRPPRLPRPRPRPRFSPRP,0.033
19,RRIRFRPPRLPRPRPRPRGKPRP,0.734
20,RRIRFRPPRLPRPRPRPRGPPRP,0.763
21,RRIRFRPPRLPRPRPRPRIGPRP,0.543
22,RRIRFRPPRLPRPRPRPRIIPRP,-0.514
23,RRIRFRPPRLPRPRPRPRKDPRP,-0.302
24,RRIRFRPPRLPRPRPRPRLFPRP,-0.0286
25,RRIRFRPPRLPRPRPRPRLPPRP,1.13

row,Sequence,shrunken log2 fold change
1,RRIRFRPPRLPRPRPRPRMGPRP,0.302
2,RRIRFRPPRLPRPRPRPRMWPRP,0.127
3,RRIRFRPPRLPRPRPRPRNPPRP,0.118
4,RRIRFRPPRLPRPRPRPRQIPRP,0.0287
5,RRIRFRPPRLPRPRPRPRQQPRP,0.0599
6,RRIRFRPPRLPRPRPRPRRGPRP,0.435
7,RRIRFRPPRLPRPRPRPRRKPRP,0.246
8,RRIRFRPPRLPRPRPRPRTCPRP,-0.0542
9,RRIRFRPPRLPRPRPRPRTPPRP,0.534
10,RRIRFRPPRLPRPRPRPRWNPRP,0.00853
11,RRIRFRPPRLPRPRPRPRWSPRP,0.112
12,RRIRFRPPRLPRPRPRPSAEPRP,0.0747
13,RRIRFRPPRLPRPRPRPSDLPRP,-0.0388
14,RRIRFRPPRLPRPRPRPSETPRP,-0.13
15,RRIRFRPPRLPRPRPRPSGMPRP,-0.637
16,RRIRFRPPRLPRPRPRPSHNPRP,-0.782
17,RRIRFRPPRLPRPRPRPSKPPRP,-0.0327
18,RRIRFRPPRLPRPRPRPSLMPRP,-0.6
19,RRIRFRPPRLPRPRPRPSLQPRP,-0.31
20,RRIRFRPPRLPRPRPRPSMDPRP,-0.819
21,RRIRFRPPRLPRPRPRPSNLPRP,-0.56
22,RRIRFRPPRLPRPRPRPSNTPRP,-0.422
23,RRIRFRPPRLPRPRPRPSPGPRP,-0.101
24,RRIRFRPPRLPRPRPRPSSEPRP,-0.134
25,RRIRFRPPRLPRPRPRPSSNPRP,-0.715
